# Data from the supplement of paper PMC7125110.
# ± gives the standard error. For part of these data: This sample holds only a part of the variants without activity.
# B1: glmS ribozyme (parent)
# chain: AUAAAAGCGCCAGAACUACAGAAAUGUAGUUGACGAGGAGGAGGUUUAUCGAAUUUUCGGCGGAUGCCUCCAAA
# Experiments:
# Details in all cases: with glucosamine-6-phosphate
# glucosamine-6-phosphate [1] = variants of: B1; assay: kcat; higher = faster cleavage; RNA array
# Method in brief: (§1)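 On sequenced MiSeq chips, barcoded ribozyme variants were made in situ by E. coli RNA polymerase and followed at 37 °C through a hybridised Cy3 probe. Glucosamine-6-phosphate was flowed in at 40 μM to 10 mM in HEPES/KCl/Mg(OAc)2 buffer. Exponential fits to normalised per-tile medians gave kobs, and weighted Michaelis–Menten fits gave kcat and KM.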
# glucosamine-6-phosphate [2] = variants of: B1; assay: KM; higher = weaker cofactor use; RNA array
# Method in brief: as §1
# glucosamine-6-phosphate [3] = variants of: B1; assay: self-cleavage kobs at 2500 uM GlcN6P; higher = faster cleavage; RNA array
# Method in brief: as §1
# glucosamine-6-phosphate [4] = variants of: B1; assay: self-cleavage kobs at 10000 uM GlcN6P; higher = faster cleavage; RNA array
# Method in brief: as §1
# glucosamine-6-phosphate [5] = variants of: B1; assay: self-cleavage kobs at 40 uM GlcN6P; higher = faster cleavage; RNA array
# Method in brief: as §1
# glucosamine-6-phosphate [6] = variants of: B1; assay: self-cleavage kobs at 160 uM GlcN6P; higher = faster cleavage; RNA array
# Method in brief: as §1
# glucosamine-6-phosphate [7] = variants of: B1; assay: self-cleavage kobs at 640 uM GlcN6P; higher = faster cleavage; RNA array
# Method in brief: as §1
Variant,kcat (glucosamine-6-phosphate [1]) [s⁻¹],KM (glucosamine-6-phosphate [2]) [µM],self-cleavage kobs at 2500 uM GlcN6P (glucosamine-6-phosphate [3]) [s⁻¹],self-cleavage kobs at 10000 uM GlcN6P (glucosamine-6-phosphate [4]) [s⁻¹],self-cleavage kobs at 40 uM GlcN6P (glucosamine-6-phosphate [5]) [s⁻¹],self-cleavage kobs at 160 uM GlcN6P (glucosamine-6-phosphate [6]) [s⁻¹],self-cleavage kobs at 640 uM GlcN6P (glucosamine-6-phosphate [7]) [s⁻¹]
G13U G41A,5.17e-05 ± 3.4e-06,3540 ± 600,2.17e-05 ± 8.2e-06,3.81e-05 ± 9.2e-06,–,–,–
A14G G41C,0.00141 ± 0.00048,–,0.000737 ± 0.00013,0.00105 ± 0.00013,4.74e-05 ± 9.7e-06,4.38e-05 ± 1.7e-05,0.00022 ± 5.1e-05
A14C U30A,0.00104 ± 0.00011,2710 ± 480,0.000568 ± 0.00017,0.000813 ± 0.00013,–,6.84e-05 ± 2e-05,0.000182 ± 3.9e-05
A15C G40A,0.000642 ± 0.00018,1860 ± 840,0.000365 ± 7.3e-05,0.000584 ± 0.00012,2.42e-05 ± 9.8e-06,8.81e-05 ± 2.4e-05,0.000149 ± 2e-05
A15C G40C,0.000353 ± 6.6e-05,1230 ± 420,0.000234 ± 2.4e-05,0.000343 ± 3.9e-05,–,5.62e-05 ± 7.5e-06,0.000109 ± 9.3e-06
A14G U45G,0.0225 ± 0.0076,3450 ± 1400,0.00864 ± 0.003,0.0175 ± 0.0071,0.000286 ± 0.0001,0.000908 ± 0.00024,0.00617 ± 0.0025
A14G U45C,0.00289 ± 0.0011,–,0.00215 ± 0.00057,–,0.000196 ± 4.6e-05,0.000403 ± 9.2e-05,0.00149 ± 0.00031
A14G G29C U56A,0.00138 ± 0.00036,1960 ± 970,0.000647 ± 0.00014,0.00136 ± 0.00029,3.76e-05 ± 1.8e-05,–,0.000364 ± 8.4e-05
A14U C58A,0.000695 ± 4.9e-05,2220 ± 300,0.000346 ± 4.3e-05,0.000594 ± 7.5e-05,–,5.03e-05 ± 1.2e-05,0.000162 ± 3.2e-05
A15G A53C,0.00857 ± 0.0011,1860 ± 340,0.00522 ± 0.0012,0.00742 ± 0.0015,0.000205 ± 3.7e-05,0.000653 ± 0.00021,0.00195 ± 0.00035
A14U U31C C34G A42G U47A G51A C71A,< 1e-05,–,–,< 1e-05,–,–,–
C16A A64G,0.00134 ± 0.00022,2060 ± 520,0.000757 ± 7.7e-05,0.00113 ± 0.00015,3.87e-05 ± 8.2e-06,9.99e-05 ± 1.3e-05,0.000277 ± 3.5e-05
A15U U46C,0.000336 ± 2.6e-05,1290 ± 210,0.000249 ± 3.3e-05,0.000288 ± 2.9e-05,–,2.98e-05 ± 1.3e-05,0.000111 ± 1.1e-05
A15U U55G,0.00423 ± 0.0019,–,0.00204 ± 0.00063,0.00356 ± 0.00054,0.000109 ± 1.3e-05,0.000152 ± 4.6e-05,0.00134 ± 0.00029
C16G C67A,0.00104 ± 0.00042,–,0.000618 ± 0.00021,0.000956 ± 0.00019,3.35e-05 ± 7e-06,–,0.000169 ± 6.1e-05
A14G C70U C71G,0.000213 ± 6.9e-05,–,0.00039 ± 8.8e-05,0.000168 ± 3.3e-05,–,–,0.000185 ± 3.7e-05
A14U U31C,0.00342 ± 0.00056,1450 ± 340,0.00229 ± 0.00027,0.00303 ± 0.0006,0.00012 ± 1.9e-05,0.000327 ± 3.9e-05,0.000956 ± 0.00011
A15C U65C,7.01e-05 ± 1.5e-05,–,9.83e-05 ± 2.2e-05,6.14e-05 ± 1e-05,–,–,–
A15U G32U,0.00104 ± 0.0003,6790 ± 2800,0.000266 ± 2.9e-05,0.000628 ± 6.4e-05,–,–,0.000103 ± 1.2e-05
A14U U45A,0.0137 ± 0.0043,1480 ± 610,0.00683 ± 0.0026,0.0148 ± 0.004,0.000446 ± 7.7e-05,0.00102 ± 0.00029,0.00404 ± 0.00082
A14G C50U,0.000229 ± 4.9e-05,7960 ± 3000,5.19e-05 ± 9.6e-06,0.000128 ± 1.5e-05,–,–,3.25e-05 ± 1.6e-05
G13U A33U,1.31e-05 ± 3.3e-07,1490 ± 190,–,–,< 1e-05,< 1e-05,–
G13C U54G,0.000222 ± 4.5e-06,6040 ± 230,6.51e-05 ± 1e-05,0.000138 ± 1.7e-05,–,–,–
A14U U31G A39C,0.000999 ± 0.00027,4360 ± 1700,0.000373 ± 9.9e-05,0.000701 ± 0.00017,–,5.41e-05 ± 2e-05,0.000117 ± 2.6e-05
A15C A33C,6.42e-05 ± 3.3e-06,1900 ± 440,3.95e-05 ± 1.2e-05,5.37e-05 ± 6.3e-06,–,–,–
A15U G59A,1.53e-05 ± 4.8e-06,–,–,–,< 1e-05,–,–
A14U U47G,0.00156 ± 0.00026,1750 ± 450,0.000947 ± 0.00011,0.00132 ± 0.00013,5.6e-05 ± 8.8e-06,0.000115 ± 1.4e-05,0.000416 ± 4.8e-05
C16A U46G C70G,2.12e-05 ± 3.1e-06,–,–,–,–,–,–
A15G A33C,0.000368 ± 3.1e-05,2210 ± 330,0.000213 ± 3e-05,0.00029 ± 4.2e-05,–,–,8.06e-05 ± 9.8e-06
